Publication PMC2680933

How the values were obtained:
Assay in all cases: FRET or BRET
III3(V798D)-FRET = biological target: III3(V798D)-FRET
[1] = biological target: III3-FRET (III3 flanked by mYPet and mECFP*)
III3(V834D)-FRET = biological target: III3(V834D)-FRET
III3(D838G)-FRET = biological target: III3(D838G)-FRET

FRET efficiency of the construct with anastellin (0.21 without) (III3(V798D)-FRET): 0.28
Kd (III3(V798D)-FRET): 180 nM
half time of binding (III3(V798D)-FRET): < 1 s
FRET efficiency of the construct with anastellin (0.19 without) [1]: 0.28
Kd [1]: 210 nM
first order rate constant of binding [1]: 0.02 s⁻¹
half time of binding [1]: 30 s
FRET efficiency of the construct with anastellin (0.21 without) (III3(V834D)-FRET): 0.27
Kd (III3(V834D)-FRET): < 50 nM
half time of binding (III3(V834D)-FRET): < 1 s
FRET efficiency of the construct with anastellin (0.18 without) (III3(D838G)-FRET): 0.27
Kd (III3(D838G)-FRET): 490 nM
half time of binding (III3(D838G)-FRET): 60 s
Substance: anastellin (domain or fragment)
